Entries after “also recorded” stand apart in the source; their conditions may differ. Blank lines part the entries; values can stand above or below the molecule they belong to.
How the values were obtained:
[1] = system: mouse fibroblast (NIH3T3); assay: βig-h3-mediated cell adhesion test, NIH3T3; format: cell-based; settings: for adhesion inhibiting effect: NIH3T3, concentration of 0.5uM, FIG. 15C; for βig-h3-mediated cell adhesion: NIH3T3, βig-h3 5 ug/ml coat
Method: (§1) Human βig-h3 was introduced into a 96-well plate at a concentration of 5 ug/ml, and coated for 14 hours at 4° C. In DMEM+0.5% BSA (Bovine Serum Albumin) culture medium, human fibroblast (NIH3T3) was introduced, and hsdhFas-1 peptide at concentrations was injected thereto, followed by mixing. The resultant mixture was cultured at 37° C. for 30 minutes, and plated on a coated well. It was cultured for 2 hours, and washed with PBS (phosphate buffered saline) so as to remove unattached cells, and then added with a substrate (4-Nitrophenyl N-acetyl-β-D-glucosaminide, Sigma, U.S.) to be activated by β-N-acetylglucosaminidase within the cell, followed by culturing at 37° C. for 1 hour. Then, a glycine EDTA solution (0.5M EDTA, 50 mM glycine, pH 10.4) was added thereto, and the coloring extent according to the number of attached cells was measured by absorbance.
Also, a structurally modified peptide of a fas-1 domain of mouse βig-h3 was synthesized as a recombinant peptide (hereinafter, referred to as ‘mdhFas-1peptide’, see FIG. 2), and a mouse cell line, that is, NIH3T3 cell line, was used to test the inhibiting effect by mdhFas-1 peptide on adhesion and migration of a Synovial membrane cell in the same manner as that in the test using human βig-h3.
as §1, with “βig-h3” for “Human βig-h3”, “mouse” for “human”, “MFK23, MFK24, MFK25 or MFK27” for “hsdhFas-1 peptide”

[2] = system: NIH3T3; assay: βig-h3-mediated cell migration test (transwell), NIH3T3; format: cell-based, mouse; settings: 7 hours
Method: In the lower compartment of a transwell filter having an 8 um hole size allowing cells to be migrated, βig-h3 was cultured at 4° C. for 12 to 14 hours and coated. In DMEM+0.5% BSA culture medium, NIH3T3 was introduced, and administered with MFK23, MFK24 or MFK25 at concentrations, followed by mixing. The resultant mixture was cultured at 37° C. for 30 minutes, inoculated into the upper chamber of the coated well, and cultured for 7 hours at 37° C. Then, the cells migrated to the lower compartment of the filter were fixed by paraformaldehyde, and strained by a crystal violet. The cells […] remaining in the upper chamber were wiped out and the number of cells migrated to the lower compartment was microscopically counted.

[3] = molecular target: cathepsin L (Homo sapiens, UniProt P07711); assay: Enzymatic digestion test, cathepsin L; format: biochemical; settings: 3 ug peptide, cathepsin L 100, 200, 800 ng, 37° C. 4 hours
Method: (§2) 3 ug of synthesized mdhFas-1-MMPsubstrate structure modified protein, together with MMP1 (5 ng, 10 ng and 50 ng), MMP2 (100 ng, 200 ng and 800 ng), MMP3 (10 ng, 50 ng and 100 ng), cathepsin D (5 ng, 10 ng and 50 ng), cathepsin L (100 ng, 200 ng and 800 ng), and cathepsin K (10 ng, 50 ng and 100 ng), was mixed with enzyme buffer (150 mM NaCl, 5 mM. CaCl2, 20 mM Tris-HCl pH7.5), and reacted at 37° C. for 4 hours. The resultant product was subjected to electrophoresis through 15% polyacrylamide gel, transferred to a Nitrocellulose Membrane (Schleicher & Schuell), blocked at room temperature for 1 hour with TBST solution containing 3% BSA (20 mmole/L Tris-HCl, 137 mmole//l NaCl, 0.1% Tween-20), washed TBST solution three times (each for 10 minutes), and reacted with primary antibody (anti-Histidine or anti-Bigh3) for 1 hour. The resultant product was washed with TBST solution three times (each for 10 minutes), reacted with a secondary antibody conjugated to horseradish peroxidase (HRP) for 1 hour, washed TBST solution three times (each for 10 minutes), and visualized by ECL (Amersham Biosciences, UK) so as to detect the change in the amount of mdhFas-1-MMPsubstrate-RGD structural peptide.

[4] = molecular target: cathepsin D (Homo sapiens, UniProt P07339); assay: Enzymatic digestion test, cathepsin D; format: biochemical; settings: 3 ug peptide, cathepsin D 5, 10, 50 ng, 37° C. 4 hours
Method: as §2

[5] = molecular target: MMP3 (Homo sapiens, UniProt P08254); assay: Enzymatic digestion test, MMP3; format: biochemical; settings: 3 ug peptide, MMP3 10, 50, 100 ng, 37° C. 4 hours
Method: as §2

[6] = molecular target: T1, MMP1 (Homo sapiens, UniProt P03956); assay: Enzymatic digestion test, MMP1; format: biochemical; settings: 3 ug peptide, MMP1 5, 10, 50 ng, 37° C. 4 hours
T1 sequence (P03956 100-469): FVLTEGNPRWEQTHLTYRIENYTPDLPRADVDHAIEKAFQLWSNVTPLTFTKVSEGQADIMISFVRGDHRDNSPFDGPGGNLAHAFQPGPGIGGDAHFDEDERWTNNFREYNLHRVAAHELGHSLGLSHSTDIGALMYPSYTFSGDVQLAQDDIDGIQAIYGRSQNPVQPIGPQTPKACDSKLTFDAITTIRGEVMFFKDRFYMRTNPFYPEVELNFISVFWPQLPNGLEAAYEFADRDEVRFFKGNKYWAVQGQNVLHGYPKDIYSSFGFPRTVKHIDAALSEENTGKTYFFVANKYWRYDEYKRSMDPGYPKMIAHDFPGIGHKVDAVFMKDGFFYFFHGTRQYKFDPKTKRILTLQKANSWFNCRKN
Method: as §2

[7] = molecular target: T2, cathepsin K (Homo sapiens, UniProt P43235); assay: Enzymatic digestion test, cathepsin K; format: biochemical; settings: 3 ug peptide, cathepsin K 10, 50, 100 ng, 37° C. 4 hours
T2 sequence (P43235 115-329): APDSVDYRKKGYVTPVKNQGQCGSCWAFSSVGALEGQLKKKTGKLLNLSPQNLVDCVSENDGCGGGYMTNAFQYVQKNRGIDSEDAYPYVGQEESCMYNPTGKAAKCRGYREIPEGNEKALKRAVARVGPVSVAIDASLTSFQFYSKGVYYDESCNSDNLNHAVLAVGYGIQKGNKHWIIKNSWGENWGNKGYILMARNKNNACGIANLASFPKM
Method: as §2

[8] = molecular target: T3, MMP2 (Homo sapiens, UniProt P08253); assay: Enzymatic digestion test, MMP2; format: biochemical; settings: 3 ug peptide, MMP2 100, 200, 800 ng, 37° C. 4 hours
T3 sequence (P08253 110-660): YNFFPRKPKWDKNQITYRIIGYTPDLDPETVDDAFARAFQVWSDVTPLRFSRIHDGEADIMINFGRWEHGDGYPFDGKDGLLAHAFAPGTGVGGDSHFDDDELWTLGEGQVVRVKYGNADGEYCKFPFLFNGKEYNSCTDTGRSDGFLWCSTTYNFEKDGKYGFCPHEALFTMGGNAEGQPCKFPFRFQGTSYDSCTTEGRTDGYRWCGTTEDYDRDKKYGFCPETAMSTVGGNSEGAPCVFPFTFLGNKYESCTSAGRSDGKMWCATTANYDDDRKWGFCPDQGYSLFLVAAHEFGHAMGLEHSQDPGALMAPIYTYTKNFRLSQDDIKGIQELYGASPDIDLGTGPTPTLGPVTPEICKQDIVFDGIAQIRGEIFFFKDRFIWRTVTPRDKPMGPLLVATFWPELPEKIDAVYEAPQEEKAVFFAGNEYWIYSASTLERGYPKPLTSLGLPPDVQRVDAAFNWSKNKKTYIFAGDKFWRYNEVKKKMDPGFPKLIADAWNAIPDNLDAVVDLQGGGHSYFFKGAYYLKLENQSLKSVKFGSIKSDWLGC
Method: as §2

[9] = Toxicity test in CIA mouse (weight, serologic test, blood test); settings: CIA mouse, 22nd day vs 48th day
Method: On the 48th day, a serologic test and a blood test were carried out.

[10] = system: collagen-induced arthritis (CIA) mouse model; assay: Arthritis therapeutic effect in CIA mouse (clinical arthritis index); format: in vivo
Method: A CIA mouse model having the similar characteristic to that of human rheumatoid arthritis was prepared according to the description in a known literature (Protocol for the successful induction of collagen-induced arthritis (CIA) and collagen antibody-induced arthritis (CAIA) in mice. Chondrex, Redmond, Wash.): Bovine type 2 collagen 100 ug was mixed with Freund's complete adjuvant, and hypodermically inoculated into the tail of the mouse. After 3 weeks, bovine type 2 collagen 100 ug was mixed with Freund's incomplete adjuvant, and inoculated again into the tail of the mouse. Then, the mouse was used in the experiment.
In order to find out the therapeutic effect of arthritis in a CIA model, for four weeks from the onset (the 23rd day) of arthritis following the second injection of the bovine type 2 collagen, MFK23 or MFK24 was daily injected into the abdominal cavity in doses of 0.1 mg/kg, 1 mg/kg, 10 mg/kg and 30 mg/kg. As a control group, the same amount of PBS was injected into the abdominal cavity. From the 23rd day to the 50th day, by using a Clinical arthritis index, the severity of arthritis was daily determined. The determination was based on the following data.
0; no symptom, 1; edema in one articulation or light edema, 2; severe edema in 2 or more articulations, 3; severe edema in most articulations, 4; severe edema in the whole of legs.

Chain of MMP3 (P08254 100-477, species assumed): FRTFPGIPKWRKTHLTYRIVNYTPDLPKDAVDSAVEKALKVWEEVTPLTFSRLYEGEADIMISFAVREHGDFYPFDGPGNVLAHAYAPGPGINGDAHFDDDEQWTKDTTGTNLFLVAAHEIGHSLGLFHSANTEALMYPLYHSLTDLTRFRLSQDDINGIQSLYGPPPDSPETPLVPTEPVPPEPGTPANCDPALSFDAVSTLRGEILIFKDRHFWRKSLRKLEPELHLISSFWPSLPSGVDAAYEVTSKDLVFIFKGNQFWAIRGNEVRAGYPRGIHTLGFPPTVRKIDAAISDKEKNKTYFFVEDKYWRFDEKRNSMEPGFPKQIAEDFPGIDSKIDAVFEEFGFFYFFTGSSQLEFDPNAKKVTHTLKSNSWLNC
Chain of cathepsin L (P07711 114-333, species assumed): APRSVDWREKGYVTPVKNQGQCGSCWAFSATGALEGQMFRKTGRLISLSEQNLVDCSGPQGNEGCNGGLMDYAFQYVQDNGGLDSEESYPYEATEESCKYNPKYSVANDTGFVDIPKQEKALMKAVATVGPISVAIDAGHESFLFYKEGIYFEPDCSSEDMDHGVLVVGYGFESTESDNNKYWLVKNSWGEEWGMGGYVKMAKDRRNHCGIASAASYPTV
Chain of cathepsin D (P07339 65-412, species assumed): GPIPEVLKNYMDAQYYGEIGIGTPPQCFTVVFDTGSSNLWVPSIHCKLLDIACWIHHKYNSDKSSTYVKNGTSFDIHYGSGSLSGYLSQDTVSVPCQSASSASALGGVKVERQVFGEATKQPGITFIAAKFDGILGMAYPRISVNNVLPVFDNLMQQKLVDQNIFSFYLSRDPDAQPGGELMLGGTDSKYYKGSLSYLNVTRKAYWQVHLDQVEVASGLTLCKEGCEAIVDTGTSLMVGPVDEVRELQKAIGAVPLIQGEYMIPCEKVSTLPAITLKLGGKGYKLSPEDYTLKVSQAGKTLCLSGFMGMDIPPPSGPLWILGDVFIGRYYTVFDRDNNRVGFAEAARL

Molecule: RGDSP (amino acid chain comprising ′RGD′) [reference compound]
adhesion inhibiting effect [1]: 0%

cleavage through treatment with cathepsin L [3]: not cleaved
cleavage through treatment with cathepsin D [4]: not cleaved
cleavage through treatment with cathepsin K [7]: not cleaved
cleavage through treatment with MMP-2 [8]: concentration-dependently cleaved
B1: MFK25: fusion peptide having sequential links of mdhFas-1, MMP consensus substrate GPLGIAG (SEQ ID NO: 7), and QERGDSLA (SEQ ID NO: 10) (protein)
chain: QAMPPEELNKLLANAKELTNILKYHIGDEILVSGGIGALVRLKSLQGDKLEVSSKNNVVSVNKEPVAETDIMEFGPLGIAGVDGQERGDSLAGLE
modifications: MFK25
βig-h3-mediated cell migration [2]: inhibited the cell migration; also recorded: concentration-dependently inhibited
cleavage through treatment with MMP-3 [5]: concentration-dependently cleaved; also recorded: well cleaved
cleavage through treatment with MMP-1 [6]: concentration-dependently cleaved; also recorded: well cleaved
βig-h3-mediated cell adhesion [1]: even at a very low concentration can inhibit the cell adhesion; also recorded: concentration-dependently inhibited

B2: mdhFas-1: peptide prepared by removing H1 and H2 regions from the fourth fas-1 domain of mouse βig-h3 (protein)
chain: QAMPPEELNKLLANAKELTNILKYHIGDEILVSGGIGALVRLKSLQGDKLEVSSKNNVVSVNKEPVAETDIM
modifications: mdhFas-1
notes: peptide prepared by removing H1 and H2 regions from the fourth fas-1 domain of mouse βig-h3
βig-h3-mediated cell migration [2]: concentration-dependently inhibited
adhesion inhibiting effect [1]: 50%
βig-h3-mediated cell adhesion [1]: concentration-dependently inhibited
body weight change compared to control group [9]: abnormal findings in the weight change were not observed
arthritis inhibition (clinical arthritis index) ([10]; 10 mg/kg daily): about 32%
arthritis inhibition (clinical arthritis index) ([10]; 30 mg/kg daily): about 69%
arthritis inhibiting effect (clinical arthritis index), in words ([10]; daily into the abdominal cavity): concentration-dependently inhibited

B3: MFK27: fusion peptide having sequential links of mdhFas-1, MMP3 substrate GPLGLWARG (SEQ ID NO: 8), and QERGDSLA (SEQ ID NO: 10) (protein)
chain: MALLMRLLTLALALSVGPAGTLARSQAMPPEELNKLLANAKELTNILKYHIGDEILVSGGIGALVRLKSLQGDKLEVSSKNNVVSVNKEPVAETDIMEFGPLGLWARGVDQERGDSLAGLE
modifications: MFK27
βig-h3-mediated cell adhesion [1]: even at a very low concentration can inhibit the cell adhesion; also recorded: concentration-dependently inhibited

Reference: patent US9605038B2, “Fusion peptide comprising dhFas-1 domain and MMP substrate and use thereof for preventing and treating rheumatoid arthritis” (Kyungpook National University Industry-Academic Cooperation …, priority 2010, dated 2017)
